From patent US20020103123A1
Where “and” joins values, the source holds several entries; their conditions need not be identical. Identical values can stand only once. Like-named read-outs stand apart in the source and are kept apart here.

Legend:
[1] = target: T1, rat hypothalamic Y5 receptor (rat); assay: 125I-PYY displacement, COS-7 membranes
T1 sequence: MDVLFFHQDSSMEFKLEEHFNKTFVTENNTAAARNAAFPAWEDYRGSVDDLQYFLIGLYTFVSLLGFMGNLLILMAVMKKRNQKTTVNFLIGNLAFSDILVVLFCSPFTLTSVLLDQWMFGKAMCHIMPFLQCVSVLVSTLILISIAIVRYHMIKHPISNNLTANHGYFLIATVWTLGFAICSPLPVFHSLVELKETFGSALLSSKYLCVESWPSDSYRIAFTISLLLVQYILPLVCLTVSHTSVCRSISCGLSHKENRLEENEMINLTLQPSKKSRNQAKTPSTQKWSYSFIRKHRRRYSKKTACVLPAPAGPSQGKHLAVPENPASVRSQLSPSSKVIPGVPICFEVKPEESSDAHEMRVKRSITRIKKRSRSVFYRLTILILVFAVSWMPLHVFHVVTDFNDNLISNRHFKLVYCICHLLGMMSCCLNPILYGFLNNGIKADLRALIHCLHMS

rat Y2 receptor (rat) [2] = target: rat Y2 receptor (rat) (UniProt Q9ERC0); assay: 125I-PYY displacement, COS-7 membranes
rat Y1 receptor (rat) [3] = target: rat Y1 receptor (rat) (UniProt P21555); assay: 125I-PYY displacement, COS-7 membranes
rat Y4 receptor (rat) [4] = target: rat Y4 receptor (rat) (UniProt Q63447); assay: 125I-PYY displacement, COS-7 membranes
Chain of rat Y4 receptor (rat) (Q63447 whole entry): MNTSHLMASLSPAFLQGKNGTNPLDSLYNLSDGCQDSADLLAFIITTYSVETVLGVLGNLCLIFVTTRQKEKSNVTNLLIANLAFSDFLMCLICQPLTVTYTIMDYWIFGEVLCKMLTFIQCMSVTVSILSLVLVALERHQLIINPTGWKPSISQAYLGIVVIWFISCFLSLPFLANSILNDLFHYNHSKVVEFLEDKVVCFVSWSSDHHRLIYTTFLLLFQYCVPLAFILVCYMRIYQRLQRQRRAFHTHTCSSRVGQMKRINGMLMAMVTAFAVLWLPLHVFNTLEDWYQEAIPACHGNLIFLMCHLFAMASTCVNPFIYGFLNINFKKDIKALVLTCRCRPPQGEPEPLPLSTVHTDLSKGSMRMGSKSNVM

[5] = target: membranes from rat hypothalamus; assay: 125I-PYY displacement, rat hypothalamic membranes
[6] = target: T1, rat hypothalamic Y5 receptor (rat)
[7] = target: human hippocampal Y5 receptor (human)
[8] = target: T1, rat hypothalamic Y5 receptor (rat); remark: listed apart in the source
[9] = target: human hippocampal Y5 receptor (human); assay: 125I-PYY displacement, COS-7 membranes
rat Y4 receptor (rat) [10] = target: rat Y4 receptor (rat) (UniProt Q63447); assay: 125I-PYY displacement, COS-7 membranes; remark: listed apart in the source
rat Y1 receptor (rat) [11] = target: rat Y1 receptor (rat) (UniProt P21555); assay: 125I-PYY displacement, COS-7 membranes; remark: listed apart in the source
[12] = target: human Y1 receptor (human) (UniProt P25929); assay: 125I-PYY displacement, COS-7 membranes
[13] = target: human Y2 receptor (human) (UniProt P49146); assay: 125I-PYY displacement, COS-7 membranes
rat Y2 receptor (rat) [14] = target: rat Y2 receptor (rat) (UniProt Q9ERC0); assay: 125I-PYY displacement, COS-7 membranes; remark: listed apart in the source
[15] = target: T1, rat hypothalamic Y5 receptor (rat); assay: 125I-PYY displacement, COS-7 membranes; remark: listed apart in the source
rat Y4 receptor (rat) [16] = target: rat Y4 receptor (rat) (UniProt Q63447); assay: 125I-PYY displacement, COS-7 membranes; remark: listed apart in the source
[17] = target: human Y1 receptor (human) (UniProt P25929); assay: 125I-PYY displacement, COS-7 membranes; remark: listed apart in the source
[18] = target: human Y2 receptor (human) (UniProt P49146); assay: 125I-PYY displacement, COS-7 membranes; remark: listed apart in the source
rat Y2 receptor (rat) [19] = target: rat Y2 receptor (rat) (UniProt Q9ERC0); assay: 125I-PYY displacement, COS-7 membranes; remark: listed apart in the source
[20] = target: human hippocampal Y5 receptor (human); assay: 125I-PYY displacement
[21] = target: human hippocampal Y5 receptor (human); assay: 125I-PYY3-36 displacement, LM(tk-) membranes
[22] = target: human hippocampal Y5 receptor (human); assay: 125I-PYY displacement, LM(tk-) membranes
[23] = target: membranes from rat hypothalamus; assay: 125I-PYY displacement, rat hypothalamic membranes; high-affinity part of a two-part curve
[24] = target: T1, rat hypothalamic Y5 receptor (rat); assay: 125I-PYY displacement, COS-7 membranes; remark: listed apart in the source
[25] = target: human Y4 receptor (human) (UniProt P50391); assay: 125I-PYY displacement, COS-7 membranes
[26] = target: T1, rat hypothalamic Y5 receptor (rat); assay: time course, 0.08 nM radioligand, room temperature, 138 mM Na+
[27] = target: T1, rat hypothalamic Y5 receptor (rat); assay: time course, 0.08 nM radioligand, room temperature, 10 mM Na+
[28] = target: T1, rat hypothalamic Y5 receptor (rat); assay: saturation binding, isotonic buffer, room temperature, COS-7 membranes
[29] = target: human hippocampal Y5 receptor (human); remark: listed apart in the source
[30] = target: human hippocampal Y5 receptor (human); remark: listed apart in the source
[31] = target: human hippocampal Y5 receptor (human); assay: 125I-PYY displacement, COS-7 membranes; remark: listed apart in the source

Question: With W(nor-L)RF-amide (peptide) as the substance, how does the Ki [1] read?
Answer: 8700 nM

Question: avian PP (peptide) was tested. Which Ki (rat Y2 receptor (rat) [2]) did it give?
Answer: > 1000 nM

Question: What does the source list for frog NPY (melanostatin) (peptide)?
Answer: Ki [1]: 0.71 nM; Ki (rat Y1 receptor (rat) [3]): 0.09 nM; Ki (rat Y2 receptor (rat) [2]): 0.65 nM

Question: What does the source list for frog PP (rana temporaria) (peptide)?
Answer: Ki [1]: > 550 nM; Ki (rat Y4 receptor (rat) [4]): > 1000 nM; Ki (rat Y1 receptor (rat) [3]): 720 nM; Ki (rat Y2 receptor (rat) [2]): > 980 nM

Question: How did the IC50 [5] turn out when “human NPY2-36 (from UniProt P01303) (peptide)” was run?
Answer: 2.3 nM

Question: And the inhibition of forskolin-stimulated cAMP accumulation, EC50 [6]?
Answer: 2 nM

Question: What about the maximum inhibition of forskolin-stimulated cAMP accumulation (Emax) [6] of the same substance?
Answer: 84%

Question: How did the Ki (rat Y4 receptor (rat) [4]) turn out when “human NPY2-36, P01303 (peptide; other documents disagree on this pair)” was run?
Answer: 5 nM

Question: How did the Ki (rat Y4 receptor (rat) [4]) turn out when “human NPY free acid, P01303 (peptide; free carboxylic acid at the carboxy terminus instead of the amide; other documents disagree on this pair)” was run?
Answer: > 1000 nM

Question: “human PP2-36 (from UniProt P01298) (peptide)” was tested. Which inhibition of forskolin-stimulated cAMP accumulation, EC50 [7] did it give?
Answer: 2 nM

Question: Which results are given for “human PP (from UniProt P01298) (peptide)”?
Answer: % inhibition of cAMP accumulation relative to human NPY [7]: 96%; inhibition of forskolin-stimulated cAMP accumulation, EC50 [7]: 14 nM

Question: “human PYY3-36 (from UniProt P10082) (peptide)” was tested. Which inhibition of forskolin-stimulated cAMP accumulation, EC50 [7] did it give?
Answer: 18 nM

Question: What about the inhibition of forskolin-stimulated cAMP accumulation, EC50 [6] of the same substance?
Answer: 4.9 nM

Question: What does the source list for “human PYY (from UniProt P10082) (peptide)”?
Answer: IC50 [5]: 1.3 nM; % inhibition of cAMP accumulation relative to human NPY [7]: 111%; inhibition of forskolin-stimulated cAMP accumulation, EC50 [7]: 4.9 nM

Question: What does the source list for “human [D-Trp^32]NPY (from UniProt P01303) (peptide)”?
Answer: Ki [1]: 35 nM; Ki (rat Y4 receptor (rat) [4]): > 630 nM; Ki (rat Y1 receptor (rat) [3]): > 1000 nM; Ki (rat Y2 receptor (rat) [2]): 760 nM; inhibition of forskolin-stimulated cAMP accumulation, EC50 [8]: 7.5 nM and 25 nm; Ki [9]: 35 nM; inhibition of forskolin-stimulated cAMP accumulation, EC50 [7]: 26 nM; Ki (rat Y4 receptor (rat) [10]): > 500 nM; Ki (rat Y1 receptor (rat) [11]): > 500 nM; Ki [12]: > 500 nM; Ki [13]: > 500 nM; Ki (rat Y2 receptor (rat) [14]): > 500 nM; Ki [15]: 53 nM; Ki (rat Y4 receptor (rat) [16]): > 1000 nM; Ki [17]: > 1000 nM; Ki [18]: > 1000 nM; Ki (rat Y2 receptor (rat) [19]): > 1000 nM; Ki [20]: 18 nM; inhibition of forskolin-stimulated cAMP accumulation, EC50 [6]: 9.5 nM; maximum inhibition of forskolin-stimulated cAMP accumulation (Emax) [6]: 72%; Ki [21]: 10 nM; Ki [22]: 16 nM

Question: With “human [Ile^31, Gln^34]PP (from UniProt P01298) (peptide)” as the substance, how does the Ki [9] read?
Answer: 2 nM

Question: And the inhibition of forskolin-stimulated cAMP accumulation, EC50 [7]?
Answer: 5.6 nM

Question: How did the Ki [1] turn out when “human [Leu^31, Pro^34]NPY (from UniProt P01303) (peptide)” was run?
Answer: 1 nM

Question: And the Ki (rat Y4 receptor (rat) [4])?
Answer: 0.59 nM

Question: And the Ki (rat Y1 receptor (rat) [3])?
Answer: 0.1 nM

Question: And the Ki (rat Y2 receptor (rat) [2])?
Answer: > 1000 nM

Question: And the inhibition of forskolin-stimulated cAMP accumulation, EC50 [7]?
Answer: 3 nM

Question: And the Ki [18]?
Answer: > 130 nM

Question: What about the IC50 [23] of the same substance?
Answer: 0.21 nM

Question: What about the inhibition of forskolin-stimulated cAMP accumulation, EC50 [6] of the same substance?
Answer: 0.6 nM

Question: And the maximum inhibition of forskolin-stimulated cAMP accumulation (Emax) [6]?
Answer: 70%

Question: porcine C2-NPY (peptide) was tested. Which Ki [1] did it give?
Answer: > 260 nM

Question: What about the Ki (rat Y4 receptor (rat) [4]) of the same substance?
Answer: 22 nM

Question: And the Ki (rat Y1 receptor (rat) [3])?
Answer: 140 nM

Question: And the Ki (rat Y2 receptor (rat) [2])?
Answer: 2.6 nM

Question: What about the Ki [24] of the same substance?
Answer: 260 nM

Question: And the Ki [9]?
Answer: 370 nM

Question: What about the Ki [15] of the same substance?
Answer: 470 nM

Question: What about the Ki [17] of the same substance?
Answer: 79 nM

Question: What about the Ki [18] of the same substance?
Answer: 3.5 nM

Question: And the Ki [25]?
Answer: 120 nM

Question: What about the inhibition of forskolin-stimulated cAMP accumulation, EC50 [6] of the same substance?
Answer: 240 nM

Question: What about the Ki [21] of the same substance?
Answer: 220 nM

Question: And the Ki [22]?
Answer: 260 nM

Question: Which Ki (rat Y4 receptor (rat) [4]) does the source give for “porcine NPY3-36, P01304 (peptide; other documents disagree on this pair)” here?
Answer: 36 nM

Question: How did the Ki (rat Y4 receptor (rat) [4]) turn out when “porcine [Leu^31, Pro^34]NPY (from UniProt P01304) (peptide)” was run?
Answer: 0.32 nM

Question: What about the Ki (rat Y1 receptor (rat) [3]) of the same substance?
Answer: 0.25 nM

Question: What about the Ki (rat Y2 receptor (rat) [2]) of the same substance?
Answer: 840 nM

Question: What does the source list for “porcine ^125I-[Leu^31, Pro^34]PYY (from UniProt P68005) (peptide)”?
Answer: maximal specific binding [26]: 330 fmol/mg; observed association rate (Kobs) [26]: 0.029 min⁻¹; t1/2 of association [26]: 24 min; maximal specific binding [27]: 480 fmol/mg; observed association rate (Kobs) [27]: 0.042 min⁻¹; t1/2 of association [27]: 17 min; Kd [28]: 0.072 nM; pKd [28]: 10.1

Question: Which results are given for “rat/human NPY (from UniProt P01303) (peptide)”?
Answer: intracellular free calcium concentration (Fura-2) [29]: 34 nM; IC50 [5]: 0.82 nM; inhibition of forskolin-stimulated cAMP accumulation, EC50 [7]: 2.7 nM; inhibition of forskolin-stimulated cAMP accumulation, EC50 [6]: 1.8 nM; maximum inhibition of forskolin-stimulated cAMP accumulation (Emax) [6]: 67%; inhibition of forskolin-stimulated cAMP, EC50, LM(tk-) cells [30]: 2.4 nM; inhibition of forskolin-stimulated cAMP, EC50, NIH-3T3 cells [30]: 8.5 nM; maximum inhibition of forskolin-stimulated cAMP (Emax), LM(tk-) cells [30]: 72%; maximum inhibition of forskolin-stimulated cAMP (Emax), NIH-3T3 cells [30]: 42%

Question: Which Ki (rat Y4 receptor (rat) [4]) does the source give for “rat/human NPY, P01303 (peptide; carboxy terminal amide; other documents disagree on this pair)” here?
Answer: 1.7 nM

Question: What does the source list for salmon PP (peptide)?
Answer: Ki [1]: 0.33 nM; Ki (rat Y4 receptor (rat) [4]): 3 nM; Ki (rat Y1 receptor (rat) [3]): 0.3 nM; Ki (rat Y2 receptor (rat) [2]): 0.16 nM; Ki [9]: 0.27 nM; % inhibition of cAMP accumulation relative to human NPY [7]: 96%; inhibition of forskolin-stimulated cAMP accumulation, EC50 [7]: 4.5 nM; Ki [15]: 0.31 nM; Ki [17]: 0.11 nM; Ki [18]: 0.17 nM; Ki [31]: 0.46 nM; Ki [25]: 3.2 nM; inhibition of forskolin-stimulated cAMP accumulation, EC50 [6]: 0.92 nM; Ki [21]: 0.63 nM
